Source: patent US20120041185A1, “dTDP-BETA-D-FUCOFURANOSE, ITS PREPARATION METHOD AND USE” (TIANJIN BIOCHIP TECHNOLOGY CORPORATION, priority 2007, published 2012)

B1: Fcf1: dTDP-6-deoxy-D-xylo-hex-4-ulopyranose reductase of E. coli O52, 316 amino acids, SEQ ID NO:3 (protein)
chain: MDARKNGVLITGGAGFIGKALITEMVERQIPLVSFDISDKPDSLPELSEYFNWYKFSYLESSQRIKELHEIVSRHNIKTVIHLATTMFPHESKKNIDKDCLENVYANVCFFKNLYENGCEKIIFASSGGTVYGKSDTPFSEDDALLPEISYGLSKVMTETYLRFIAKELNGKSISLRISNPYGEGQRIDGKQGVIPIFLNKISNDIPIDIIGSIESKRDYIYISDLVQAFMCSLEYEGHEDIFNIGSGESITLKKLIETIEFKLNKKAVIGFQDPIHTNANGIILDIKRAMAELGWRPTVVLDDGIDKLIKSIRCK
modifications: E. coli O52
B2: Fcf2: dTDP-D-Fucp mutase of E. coli O52 converting dTDP-D-Fucp to dTDP-D-Fucf, 377 amino acids, SEQ ID NO:4 (protein)
chain: MNKVLIIGSGFSGATIARLLAEENIKVKIIDDRKHIGGNCYDERDEKTGINVHVYGPHIFHTDNEDVWNFVNKYGTFQPYTTRLKANAKGQIYSLPVNLHTINQYYKTALSPTEARKLIASKGDQTINDPQSFEEQALKFVGEDLYKTFFYGYPKKQWGMEPKEIPASVLKRLPVRFNYDDNYFFHKFQGIPRDGYTPLFQNLLNHPNIEFELGKKVNRATVEELITSEQYGHVFFSGAIDHFYDYEFGMLQYRTLDFEKFYSEDDDYQGCVVMSYCDEDVPYTRVTEHKYFTPWEEHKGSVLYKEFSRSCDKEDIPYYPVRLVSGNSIWNKYEQKAKEETNITFIGRLATYRYLDMDVCIKEAIECAQLYIKNNKE
modifications: E. coli O52

Columns and labels:
[1] = Enzyme activity assay of Fcf1: temperature optima and kinetic parameters (capillary electrophoresis); format: biochemical, E. coli O52; conditions: for Transformation rate (%): 2 hours, 2 mM dTDP-D-Glco, 3 mM NADPH, 0.25 μM enzyme
Description: 20 μl reactions in 0.5 ml centrifugal tube contain 2 mM dTDP-D-Glco, 3 mM NADPH, 50 mM Tris-HCl buffer (pH7.4), 5 mM divalent ion chloride and 0.25 μM recombinant dTDP-D-GIcO reductase protein purified in example 2. The reactions are proceeded at certain temperatures for 2 hours. Then add chloroform of equal volume to extract protein. The aqueous phase is detected by Beckman Coulter P/ACE MDQ capillary electrophoresis.
In the condition of the foregoing reaction (37° C., 3 mM MADPH, 50 mM Tris-HCl buffer (pH 7.4), 0.25 μM enzyme, 30 seconds), the concentration of dTDP-GIcO is 0.1-1 mM. Measure the concentration of dTDP-Qui4N.

[2] = Enzyme activity assay of Fcf2: temperature optima (capillary electrophoresis); format: biochemical, E. coli O52; conditions: for Transformation rate (%): 3 hours, 2 mM dTDP-D-fucose, 3.9 μM enzyme
Description: 25 μl reactions in 0.5 ml centrifugal tube contain 2 mM dTDP-D-fucose, 50 mM Tris-HCl buffer (pH 7.4) 5 mM divalent ion chloride and 3.9 μM recombinant dTDP-D-Glcfucofuranose mutase protein purified in example 2. The reactions are proceeded at certain temperature for 3 hours. Then add chloroform of equal volume to extract protein. The aqueous phase is detected by Beckman Coulter P/ACE MDQ capillary electrophoresis.

[3] = 37° C., pH 7.4, 0.25 μM enzyme, 30 seconds, dTDP-GIcO 0.1-1 mM, Michaelis-Menten equation

Molecule	Transformation rate (%) ([1]; 4° C.)	Transformation rate (%) ([1]; 15° C.)	Transformation rate (%) ([1]; 25° C.)	Transformation rate (%) ([1]; 37° C.)	Km [1, 3] [µM]	kcat [1, 3] [s⁻¹]	Transformation rate (%) ([1]; 50° C.)	Transformation rate (%) ([1]; 65° C.)	Transformation rate (%) ([1]; 80° C.)	optimum temperature for the enzyme activity ([1]; standard reactions at 4-80° C.)	Transformation rate (%) ([2]; 4° C.)	Transformation rate (%) ([2]; 15° C.)	Transformation rate (%) ([2]; 25° C.)	Transformation rate (%) ([2]; 37° C.)	Transformation rate (%) ([2]; 50° C.)	Transformation rate (%) ([2]; 65° C.)	Transformation rate (%) ([2]; 80° C.)	optimum temperature for the enzyme activity ([2]; standard reactions at 4-80° C.) [°C]
B1	47.0	100	100	100	540	15.9	35.5	31	22	15-37 °C								
B2											1.6	9.5	9.6	9.6	4.7	0	0	37
